# Measured values: patent US20040265963
# System: T1, Tkip (tyrosine kinase inhibitor peptide), WLVFFVIFYFFR
# T1 sequence: WLVFFVIFYFFR
substance,measurement,value
recombinant human Src,"c-src tyrosine phosphorylation of a synthetic substrate peptide, in vitro kinase assay",Tkip at 50 µM failed to inhibit c-src phosphorylation of a protein substrate
